The conditions of data set [1]: animal model; without adverse effects on body weight and adipose tissue mass; cited from earlier work.
A further data set concerns the target T1, rat prolactin receptor (Rattus norvegicus, UniProt P05710).
T1 construct: host or cells: rat hepatocytes
T1 sequence (P05710 20-310 isoform P05710-3 limits assumed): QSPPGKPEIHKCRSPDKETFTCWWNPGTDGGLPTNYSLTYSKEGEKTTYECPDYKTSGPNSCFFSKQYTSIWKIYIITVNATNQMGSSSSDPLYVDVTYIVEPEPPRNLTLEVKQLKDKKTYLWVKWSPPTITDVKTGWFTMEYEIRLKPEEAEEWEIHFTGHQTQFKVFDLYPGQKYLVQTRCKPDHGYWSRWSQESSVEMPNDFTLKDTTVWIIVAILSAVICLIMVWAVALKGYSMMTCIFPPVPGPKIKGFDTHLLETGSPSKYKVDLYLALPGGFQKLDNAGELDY
Conditions: cited from earlier work.

A further data set deals with T2, GH receptors (Rattus norvegicus, UniProt P16310).
T2 construct: host or cells: rat hepatocytes
T2 sequence (P16310 19-638): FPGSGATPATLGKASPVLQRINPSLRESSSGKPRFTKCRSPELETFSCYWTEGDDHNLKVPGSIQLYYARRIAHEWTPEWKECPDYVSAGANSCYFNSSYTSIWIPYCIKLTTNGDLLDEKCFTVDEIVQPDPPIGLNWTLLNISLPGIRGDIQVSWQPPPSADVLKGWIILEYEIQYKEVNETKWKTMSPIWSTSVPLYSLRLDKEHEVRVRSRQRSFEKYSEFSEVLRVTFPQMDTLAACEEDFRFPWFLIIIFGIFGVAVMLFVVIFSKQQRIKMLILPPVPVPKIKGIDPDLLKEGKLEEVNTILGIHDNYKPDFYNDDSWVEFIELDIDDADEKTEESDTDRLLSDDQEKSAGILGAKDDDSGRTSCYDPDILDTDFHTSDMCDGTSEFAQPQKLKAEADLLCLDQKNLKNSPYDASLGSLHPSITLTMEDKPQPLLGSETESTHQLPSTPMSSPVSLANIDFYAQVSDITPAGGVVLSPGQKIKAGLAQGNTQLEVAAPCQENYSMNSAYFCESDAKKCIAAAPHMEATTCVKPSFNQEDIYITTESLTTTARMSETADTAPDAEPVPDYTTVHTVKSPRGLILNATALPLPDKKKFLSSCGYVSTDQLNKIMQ
The conditions noted are these: cited from earlier work.

For data set [2] the following is noted: overnight administration; lean and obese nondiabetic subjects, impaired glucose tolerance or type 2 diabetes; cited from earlier work.
For data set [3] the following is noted: by inhibition of lipolysis; cited from earlier work.
Data set [4] in a line: Tibial bone length, area and density by pQCT post-mortem. Type of data set: in vivo, Wistar rats. Conditions: for Fisher's PLSD for TRABECULAR, Mean Diff.: effect: treatment, significance level 5%. As for the experimental part: (§1) Body lengths (nose-anus and nose-tail) and bone length (tibial, femoral length) was assessed post-mortem using peripheral quantitative computed tomography (PQCT, Stratec) analysis. Bone density was also assessed via pQCT.
Tibias were stored in 10% neutral buffered formalin. Tissue was stripped from the bone and bone length, area and density (cortical and trabecular) was assessed using pQCT (Stratec). […] Tibial length was highly correlated with total body (nose-anus) length (FIG. 5).

Data set [5] in a line: Body lengths (nose-anus) post-mortem and BMI. The data set is classed as in vivo, Wistar rats. As to the method:
as §1
A BMI was calculated using: body weight/nose-anus length (cm)2. […] Due to the lack of lipolysis in the GH and acipimox treated animals compared to GH treated, alterations in BMI probably reflect an enhancement of liner growth above that of GH alone.

Data set [6] in a line: Blood hematocrit (marker of plasma volume / fluid retention). The data set is classed as in vivo, Wistar rats. Conditions: compared to saline; AD and SGA groups. The text has this: A well-characterised effect of GH treatment is increased plasma volume (Johannsson et al, 2002). Decrease in blood hematocrit is a reliable marker of increase in plasma volume associated with fluid retentive effects of GH therapy.

A short description of data set [7]: Tissue studies: organ and fat depot weights at termination. Type of data set: in vivo, Wistar rats. As for the experimental part: At termination animals were sacrificed by decapitation under halothane anaesthesia. Tissues (heart, liver, muscle and adipose (subcutaneous and visceral)) were collected, weighed and snap frozen in liquid nitrogen for subsequent analysis. An aliquot of liver tissue was also frozen at −20° C. for examining the growth hormone receptor using ligand-binding analysis.

A further data set has as its system plasma IGF-I. Briefly: Plasma IGF-I by RIA. Type of data set: in vivo, Wistar rats. Conditions: compared to saline controls; AD and SGA animals; at time of sacrifice. As to the method: (§2) Blood samples were collected following overnight fast. Samples were collected from the tail vein and at termination following decapitation under halothane anaesthetic. Blood samples were collected into heparinised tubes and centrifuged for harvesting of plasma. Blood samples were then analysed for insulin, glucose, FFAs, leptin, IGF-I, glycerol, triglycerides, cholesterol, corticosterone, markers of hepatic function (ALT, AST, ALP), and for markers of protein synthesis.
(§3) Plasma FFAs, triglycerides and glycerol were measured by diagnostic kit (Boehringer-Mannheim #1383175 and Sigma #337 respectively). Plasma leptin, insulin were measured using commercially available kits (inco, St Charles, Mo., US). Plasma IGF-I was measured by RIA as described previously (Vickers et al., 2000). Plasma glucose concentrations were measured using a colorimetric plate assay. All other plasma analytes (liver enzymes, electrolytes, etc.) were measured by a BM/Hitachi 737 analyser by Agriquality Laboratory Services (Auckland, New Zealand).

The test system of the next data set is plasma glucose. Briefly: Fasting plasma glucose. The data set is classed as in vivo, Wistar rats. Conditions: compared to controls. As to the method:
as §2, §3

A further data set relates to plasma leptin. In words: Plasma leptin. The data set is classed as in vivo, Wistar rats. The conditions noted are these: compared to saline animals and animals that received GH and fibrate. As to the method: as §2, §3
The next data set relates to plasma triglycerides. In words: Plasma triglycerides. The data set is classed as in vivo, Wistar rats. The conditions noted are these: compared to saline controls. As to the method:
as §2, §3

Data set [8] is described as follows: Systolic blood pressure by tail cuff plethysmography. Type of data set: in vivo, Wistar rats. Conditions: SGA offspring. As for the experimental part:
Systolic and diastolic blood pressure and heart rate were recorded by tail cuff plethysmography according to the manufacturer's instructions (Blood pressure analyser IITC, Life Science, Woodland Hills, Calif., USA). Rats were restrained in a clear plastic tube in a heated room (25-28° C.). After 10-15 minutes acclimatisation the cuff was placed on the tail and inflated to 240 mmHg. Pulses were recorded during deflation at a rate of 3 mmHg/sec and reappearance of a pulse was used to determine systolic blood pressure. A minimum of 3 clear systolic blood pressure recordings were taken per animal. Previous observations indicate that the coefficient of variation for repeated measurements is <5%.

The source of these data is patent US20070037861A1, “Enhanced method of treatment of growth disorders” (PFIZER HEALTH AB, priority 2003, published 2007).

Like-named read-outs stand apart in the source and are kept apart here.

As for `CC(C)(Oc1ccc(C2CC2(Cl)Cl)cc1)C(=O)O` (stereo not shown) [ciprofibrate], the insulin resistance result in data set [1] was “reduce insulin resistance”.

On to “hGH: human growth hormone, lactogenic and somatogenic in the rat”, for which, in the data set with rat prolactin receptor, the “binding to prolactin receptor (lactogenic binding sites)” value is “binding to both prolactin receptors and GH receptors”. In addition, in the data set with GH receptors, the “binding to GH receptors (somatogenic binding sites)” value is “binding to both prolactin receptors and GH receptors”.

`CCCCCCCN(CCc1ccc(SC(C)(C)C(=O)O)cc1)C(=O)Nc1ccc(F)cc1F` [GW9578]: the insulin resistance entry in data set [1] is recorded as “reduce insulin resistance”.

For `Cc1cnc(C(=O)O)c[n+]1[O-]` [acipimox, 5-methylpyrazinecarboxylic acid 4-oxide], in data set [2], the insulin resistance result is reported as “reduce insulin resistance” and the “plasma FFA levels” value is reported as “lower plasma FFA levels”. For the same molecule, in data set [3], the “GH induced insulin resistance” value is on record as “partially prevent”.

B1: GH: Recombinant bovine growth hormone, a pure somatogen in the rat, given subcutaneously at 5 mg/kg/day (protein, UniProt P01246 27-217, looked up)
Somatotropin: AFPAMSLSGLFANAVLRAQHLHQLAADTFKEFERTYIPEGQRYSIQNTQVAFCFSETIPAPTGKNEAQQKSDLELLRISLLLIQSWLGPLQFLSRVFTNSLVFGTSDRVYEKLKDLEEGILALMRELEDGTPRAGQILKQTYDKFDTNMRSDDALLKNYGLLSCFRKDLHKTETYLRVMKCRRFGEASCAF
On to B1, for which the Total bone density result in data set [4] (pQCT) is listed as “trend (p=0.056) towards to drop”. Further, the trabecular bone mass result in data set [4] (pQCT, AD and SGA animals) was “significantly reduced”. The Tibial length result in data set [4] (pQCT, effect of treatment, AD and SGA) was “significantly increased”. Further, the entries for the “Fisher's PLSD for TRABECULAR, Mean Diff.” value in [4] (versus GH/ACIP), in [4] (versus GH/FIB) and in data set [4] (versus SALINE) were −4.381, −10.613 and −14.137, respectively. Also, the BMI entry in data set [5] (compared to saline) was “not significantly different”. Besides, the Nose anus lengths entry in [5] (post-mortem, effect of treatment) is recorded as “significantly increased”. Also, in data set [6], the blood plasma hematocrit result was “significantly reduced”. Moreover, the Relative kidney weight result in [7] (compared to saline controls) is on record as “reduced”. Moreover, the retroperitoneal fat mass result in data set [7] (compared to saline controls) was “significantly reduced”. Further, in data set [7] (relative to body weight, AD and SGA animals), the Relative liver weight entry was “no effect”. Besides, in the data set on plasma IGF-I, the “Plasma IGF-I” value is “significantly increased”. The Fasting plasma glucose result with plasma glucose is “not significantly altered”. The plasma leptin entry in the data set on plasma leptin was “elevated”. Further, the Plasma triglycerides entry in the data set with plasma triglycerides is “no significant effect”. Also, in data set [8], the systolic blood pressure result was “significantly reduced and normalised”. In addition, the “binding to prolactin receptor (lactogenic binding sites)” value in the data set with rat prolactin receptor is “not a ligand”.
